Test system: MS2 coat protein
Assay: apparent KD of MS2 coat protein; designed switch direction (-1 OFF switch, 1 ON switch): -1; higher = weaker reporter binding
How it was run: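 Stalled E. coli RNA polymerase transcribed designed RNA switches on Illumina chips, which were then titrated with SNAP-549-labelled MS2 coat protein, doubling from 0.7 or 1.5 nM to 3 µM. Steps lasted from 0.8–1.5 h at the lowest concentration to 10–20 min at the highest. The apparent KD is each design's median over clusters of curve-fitted normalised fluorescence.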

[1] = input ligand: microRNA oligo, concentration not stated
[2] = Eterna round: R95, input ligand: FMN 200 uM
[3] = Eterna round: R95, input ligand: microRNA oligo, concentration not stated
[4] = Eterna round: R95, input ligand: none

Sequence | apparent KD of MS2 coat protein (input ligand: FMN 200 uM) | apparent KD of MS2 coat protein (input ligand: none) | apparent KD of MS2 coat protein [1] | apparent KD of MS2 coat protein [2] | apparent KD of MS2 coat protein [3] | apparent KD of MS2 coat protein [4]
CGGUCACUAGGAUAUCAGGAAAACUACAUGAGGAUCACCCAUGUACUGAGUGUAGGAGACUGAGAAGGAGUUCUUA [EX5 C.4] (Eterna round: R97, puzzle: Exclusion 5) | 31.5 nM | 22.3 nM | – | – | – | –
CGGUGACGGGUGAGGAUAUCGUGUUCGAAAGAACGUGAGAAGGCACAUGAGGAUCACCCAUGUGAUCCUCAUCG [Omei Ex4B A31] (Eterna round: R97, puzzle: Brourd's mod of Exclusion 4) | 412 nM | 56.1 nM | – | – | – | –
CGGUGUAAGUCAGGAUAUGAGCGCAACUGACGAUCAGAAGGGACACAUGAGGAUCACCCAUGUGAUUUCUCAAUAUUAUACAUC [Prohibition 90 - Jieux - Exclusion NG 1] (Eterna round: R96, puzzle: Exclusion NG 1) | 30.7 nM | 23.1 nM | 14.4 nM | – | – | –
CGGUGUAGAGGAUAUACGUGAAUUUUGUUAUAUAAUAAUUUACAUGAGGAUCACCCAUGUAGAAGGCUAUAGCG [JR_Ex2_Sub084] (Eterna round: R97, puzzle: Exclusion 2) | 23.4 nM | 24.2 nM | – | – | – | –
CGGUUGUGAGGAUAUACAUGAGGAUCACCCAUGUCCAUCCUUUCGGUAACGAUAGAACGUAGAAGGCGCACCGU [Eternabot (L2) Solution 55] (Eterna round: R97, puzzle: Exclusion 3) | 24.4 nM | 16 nM | – | – | – | –
CGUAAGCUAGGAUAUGCUUUGGGAAAGCAUUCCUUCGAUAAACUUGAGGAUCACCCAAGUAGAAGGAGCUUACA [salish99_ex2_r4_012] (Eterna round: R97, puzzle: Exclusion 2) | 18.2 nM | 12.3 nM | – | – | – | –
CGUACUAACACGAAAGUGUUAGUACAAUAAGCUUGUGAAACAUGAGGAUCACCCAUGUCCUCAUAAGCUCGUCUUAA [salish99_TOv2_r3_006] (puzzle: Sensor v3, turn-off variant 2) | – | – | – | 14.1 nM | 268 nM | 12.1 nM
CGUAGCAAAGUGAGGAUAUCUAGAGCCUCGGCUCUAGAGAAGGCACAUGAGGAUCACCCAUGUGAUUAGCUACG [BmEx4/9-A2] (Eterna round: R97, puzzle: Brourd's mod of Exclusion 4) | 173 nM | 24.1 nM | – | – | – | –
CGUAUCUUUCACGUGAGUAGUGGGUGCAACAGGUGGGUCACAUGAGGAUCACCCAUGUACUCACUUGCUCGUCUUAU [Grok-var2-07] (puzzle: Sensor v3, turn-off variant 2) | – | – | – | 24 nM | 14 nM | 21.8 nM
CGUCCACUUGAGGAUCACCCAAGUUAGGAUAUCUCCCAGCUCGCAUGUGCGGUUGGUCAGAGAAGGAACCAGGG [Ravereed] (Eterna round: R97, puzzle: Exclusion 1) | 49.5 nM | 29 nM | – | – | – | –
CGUCGACAUGUAGGAUAUCUGCACGAUUAGUGCAGAGAAGGACAUGAGGAUCACCCAUGUAGAUCACGACGAAUUAAUUUAAUU [ENG1/6-C1] (Eterna round: R96, puzzle: Exclusion NG 1) | 476 nM | 527 nM | 298 nM | – | – | –
CGUCUGUAAGGAUAUGGUAGCAUUUACAUGAGGAUCACCCAUGUUACAUGGGACUAGUGAUUAGAAGGUACGAACG [EX5 #55] (Eterna round: R97, puzzle: Exclusion 5) | 276 nM | 322 nM | – | – | – | –
CGUCUGUCAGGAUAUAGUUACAUAGACAUGAGGAUCACCCAUGUGACGUGGGACUAGUGACUAGAAGGGACGAACG [EX5 #71] (Eterna round: R97, puzzle: Exclusion 5) | 58.7 nM | 28.8 nM | – | – | – | –
CGUCUGUGAGGAUAUGGUAUCGUUUACAUGAGGAUCACCCAUGUUACAUGGGACUAGAGACUAGAAGGUACGGACG [EX5 #48] (Eterna round: R97, puzzle: Exclusion 5) | 461 nM | 391 nM | – | – | – | –
CGUGACUCAGGAUAUCGAUUAUAUCACAUGAGGAUCACCCAUGUCCAGCGAAAGCUGGAGUGAGAAGGGAGUCACG [Fiskers Ex 5 - 49] (puzzle: Exclusion 5) | – | – | – | 47.6 nM | 107 nM | 109 nM
CGUGCGUAUGUGAGGAUAUGCUGGUCCUUGGAUCAGCAGAAGGCACAUGAGGAUCACCCAUGUGGUGUCGUACG [salish99_Bmod_Ex4_018] (puzzle: Brourd's mod of Exclusion 4) | – | – | – | 18.7 nM | 182 nM | 395 nM
CGUGGACAUGAGGAUCACCCAUGUGAGGAUAUCGGCUGGUACGUGUUGGCUGGCAUCUCGAGAAGGCACAUAGU [Exclusion 1 V62] (puzzle: Exclusion 1) | – | – | – | – | 40.8 nM | –
CGUGGUAGGCAGGAUAUUUUAGACAAUUACUUGAAAGAAGGGCCUACAUGAGGAUCACCCAUGUGCUCUUCUUG [EX6 B.3] (Eterna round: R97, puzzle: Exclusion 6) | 16.9 nM | 16.8 nM | – | – | – | –

Sequence | apparent KD of MS2 coat protein (input ligand: FMN 200 uM) | apparent KD of MS2 coat protein (input ligand: none) | apparent KD of MS2 coat protein [1] | apparent KD of MS2 coat protein [2] | apparent KD of MS2 coat protein [3] | apparent KD of MS2 coat protein [4]
CGUGUCUGAUAGGAUAUGACUGUUCAUAGAUGGUUAGAAGGAUCGACAUGAGGAUCACCCAUGUAGGGCUAGCG [Eternabot (L1) Solution 65] (Eterna round: R97, puzzle: Exclusion 6) | 104 nM | 219 nM | – | – | – | –
CUAAGUCGAGGAUAUGCAUGGUGACAUGAUGCCGAUGCACGACAUGAGGAUCACCCAUGUAGAAGGCGACUUAG [Eternabot (L2) Solution 50] (Eterna round: R97, puzzle: Exclusion 2) | 8.04 nM | 835 nM | – | – | – | –
CUAAUACAUCAGGAUAUGAUAGCUUAUAGCAUAUCAGAAGGGAUGACAUGAGGAUCACCCAUGUCAAAGGGUGA [eternacac ex6r4 sub18] (Eterna round: R97, puzzle: Exclusion 6) | 130 nM | 590 nM | – | – | – | –
CUACAUCGAGGAUAUGCAAACGUAAACAUGAGGAUCACCCAUGUGACGUCAUAUUACGUAGUAGAAGGCGAAAAUA [Anlein] (Eterna round: R97, puzzle: Exclusion 5) | 20.2 nM | 15.8 nM | – | – | – | –
CUAGUCCGAGGAUAUAUUAAGUGAUACAUGAGGAUCACCCAUGUUAUUUAAUGGAUAUUAAUAGAAGGCGGACUAG [Mat - Exclusion 5 - JL mod - D78] (puzzle: Exclusion 5) | – | – | – | 42.6 nM | 32.1 nM | 31.3 nM
CUAUGCAAAGUAAGGAUAUGCUUCCGGAAACGGAGGCAGAAGGUACAUGAGGAUCACCCAUGUUAAACGCAUAG [Explosion 4 - Jieux - Brourd's mod of Exclusion 4] (Eterna round: R97, puzzle: Brourd's mod of Exclusion 4) | 16.8 nM | 12.8 nM | – | – | – | –
CUAUUACGAGGAUAUGAUUUAAGUAACAUGAGGAUCACCCAUGUUUUUCCGUUGUUAUGUUCAGAAGGCGUAUUAU [JR_E5_Sub023] (puzzle: Exclusion 5) | – | – | – | 86.1 nM | 35.6 nM | 38.8 nM
CUAUUGGCAGGAUAUGCUUUUUUAGACAUGAGGAUCACCCAUGUGAUGAAUAUUGGGUUUGCAGAAGGGCCUGAAU [JR_E5_Sub039] (puzzle: Exclusion 5) | – | – | – | – | 64.2 nM | –
CUCAGACAUGAGGAUCACCCAUGUGAGGAUAUGAUGCAGCAGUGGUCUACGCUGUGCAUCAGAAGGCACAUGUG (puzzle: Exclusion 1) | – | – | – | – | 33 nM | –
CUCAUGCCUGAGGAUAUGCUGUACAAAAGUACUGCAGAAGGCGGGACAUGAGGAUCACCCAUGUGGCGAAAGCC [Omei Ex G8] (Eterna round: R97, puzzle: Exclusion 6) | 78.7 nM | 519 nM | – | – | – | –
CUCCGACAUGAGGAUCACCCAUGUUAGGAUAUCCCACGCAGGUAGUGAGAGAAUCUGUGGAGAAGGAGCAGGGU [Eternabot (L2) Solution 74] (Eterna round: R97, puzzle: Exclusion 1) | 21.9 nM | 24.5 nM | – | – | – | –
CUCCUCGUGGCGCCUAAACACAUGAGGAUCACCCAUGUACAGGCUUUUUGCCGUCUUAUAAUAAAACCGAGGAUACG [Cezabi] (puzzle: Sensor v3, turn-off variant 1) | – | – | – | 19.1 nM | 63.9 nM | 21.2 nM
CUCGAGUUAGGAUAUGGCGGCGACUGUGUUCGCAGAUCGCACCAGAAGGAACAUGAGGAUCACCCAUGUGACGG [Eternabot (L1) Solution 42] (Eterna round: R97, puzzle: Exclusion 4) | 348 nM | 89.7 nM | – | – | – | –
CUCUCACAUGAGGAUCACCCAUGUCAGGAUAUCUCAGUGCAUCCACACGGACGCAUCAAGAGAAGGGACAAAAC [Vinxlusion 2 - Jieux - Exclusion 1] (Eterna round: R97, puzzle: Exclusion 1) | 95 nM | 59.1 nM | – | – | – | –
CUCUCGUGAGGAUAUCUCCGCGAGAAUAAUGUUACACGCGAAGAGAAGGCACAUGAGGAUCACCCAUGUUAAAC [Eternabot (L1) Solution 31] (Eterna round: R97, puzzle: Exclusion 4) | 230 nM | 54.8 nM | – | – | – | –
CUCUUGUCAGGAUAUCAACGCCAUCCACAUGGACGGCGAAAUGAGAAGGGACAUGAGGAUCACCCAUGUUAAAA [Xeveleqube] (puzzle: Exclusion 4) | – | – | – | 27.3 nM | 117 nM | 139 nM
CUCUUGUGAGGAUAUCAGGUGUGCUAGCGUACUGGUACAUCUGAGAAGGCACAUGAGGAUCACCCAUGUUUCAA [Mat - Exclusion 4 - Mod of JL - D41] (puzzle: Exclusion 4) | – | – | – | – | 52.5 nM | –

From the supplement of paper PMC9170038
